Experimental data as given in PMC9882641, “Utilizing genetic code expansion to modify N-TIMP2 specificity towards MMP-2, MMP-9, and MMP-14” (Research Square, 2023).

Key:
Assay in all cases: enzyme inhibition assay (chromogenic substrate, fit to Morrison's tight binding equation); MMP-2ACT (0.6 nM), MMP-9CAT (3 nM) or MMP-14CAT (1 nM) incubated with 0-25 nM N-TIMP2 variant for 1 h at 37 C in 50 mM HEPES, 10 mM CaCl2, 0.05% Brij-35, 1 mM DTNB, pH 7.5; then 100 uM chromogenic substrate, absorbance at 412 nm; three independent experiments
Conditions in all cases: both partners purified
[1] = molecular target: T1, human MMP-14 catalytic domain (MMP-14CAT) (human, UniProt P50281 112-292)
T1 construct: Matrix metalloproteinase 14 (MMP-14), human, catalytic domain, residues 112-292

[2] = molecular target: T2, human MMP-9 catalytic domain (MMP-9CAT) (human, UniProt P14780 107-215; P14780 391-443)
T2 construct: Matrix metalloproteinase 9 (MMP-9), human, catalytic domain, residues 107-215 (first stretch; residues 216-390 left out); Matrix metalloproteinase 9 (MMP-9), human, catalytic domain, residues 391-443 (second stretch)
T2 chain (looked up): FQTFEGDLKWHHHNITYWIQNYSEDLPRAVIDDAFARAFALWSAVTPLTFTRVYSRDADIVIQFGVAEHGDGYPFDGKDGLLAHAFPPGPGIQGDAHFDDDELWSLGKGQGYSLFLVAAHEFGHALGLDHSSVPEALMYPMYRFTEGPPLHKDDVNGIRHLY

[3] = molecular target: T3, activated MMP-2 (MMP-2ACT) (human, UniProt P08253 110-660)
T3 sequence (looked up): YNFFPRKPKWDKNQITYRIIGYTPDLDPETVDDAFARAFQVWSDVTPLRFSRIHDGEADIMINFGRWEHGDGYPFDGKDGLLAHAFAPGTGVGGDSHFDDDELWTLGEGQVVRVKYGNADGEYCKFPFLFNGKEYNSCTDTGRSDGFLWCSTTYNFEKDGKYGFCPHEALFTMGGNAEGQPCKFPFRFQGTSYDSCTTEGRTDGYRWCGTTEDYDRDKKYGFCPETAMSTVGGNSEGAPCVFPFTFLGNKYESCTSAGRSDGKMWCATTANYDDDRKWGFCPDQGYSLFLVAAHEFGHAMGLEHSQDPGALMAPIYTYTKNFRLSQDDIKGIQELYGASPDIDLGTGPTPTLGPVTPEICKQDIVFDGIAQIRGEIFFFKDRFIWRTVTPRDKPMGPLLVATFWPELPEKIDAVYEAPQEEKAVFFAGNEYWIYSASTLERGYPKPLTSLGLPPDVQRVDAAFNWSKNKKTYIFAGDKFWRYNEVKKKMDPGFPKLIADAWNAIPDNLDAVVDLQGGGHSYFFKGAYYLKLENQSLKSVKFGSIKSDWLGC

Ki [1]: 0.711 nM
Ki [2]: 0.322 nM
Ki [3]: 0.233 nM
B1: N-TIMP2 (N-terminal domain of TIMP2) (domain or fragment, human, UniProt P16035 27-153, looked up)
chain: CSCSPVHPQQAFCNADVVIRAKAVSEKEVDSGNDIYGNPIKRIQYEIKQIKMFKGPEKDIEFIYTAPSSAVCGVSLDVGGKKEYLIAGKAEGDGKMHITLCDFIVPWDTLSTTQKKSLNHRYQMGCE
notes: numbers count on: the mature protein (Cys1 is the N-terminus); Cloned in the vector pMECS; also called wild-type N-TIMP2; parental N-TIMP2; source: E. coli WK6, periplasmic extract, purified (Ni-NTA)
